Measured values as given in patent US20230272029A1, “CO-AGONISTS AT GLP-1 AND GIP RECEPTORS SUITABLE FOR ORAL DELIVERY” (Novo Nordisk A/S, priority 2020, published 2023).
Starred links: 1 amine or outer side, 2 acyl side, 3 side chain; linkers in the order of their positions; H or OH if unused. Non-standard residues stand in square brackets, D forms with d. Groups on a side chain read outwards from the residue. No end group written: not given here. *: point of attachment. C20 diacid = O=C(O)CCCCCCCCCCCCCCCCCCC(=O)*; C18 diacid = O=C(O)CCCCCCCCCCCCCCCCC(=O)*; γGlu = O=C(O)[C@H](CCC(=O)[*:2])N[*:1]; εLys = N[C@@H](CCCCN[*:1])C(=O)[*:2]; Aib = CC(C)(N)C(=O)O

B1: Compound No. 2 (peptide)
peptide: Y[Aib]EGTFTSDYSYYLEK([εLys-εLys-γGlu-C20 diacid])QAAQEFVNWLLAGGPSSGAPPPS-NH2
modifications: N-terminus assumed
SMILES: CC(C)C[C@H](NC(=O)[C@H](CC(C)C)NC(=O)[C@H](Cc1c[nH]c2ccccc12)NC(=O)[C@H](CC(N)=O)NC(=O)[C@@H](NC(=O)[C@H](Cc1ccccc1)NC(=O)[C@H](CCC(=O)O)NC(=O)[C@H](CCC(N)=O)NC(=O)[C@H](C)NC(=O)[C@H](C)NC(=O)[C@H](CCC(N)=O)NC(=O)[C@H](CCCCNC(=O)[C@@H](N)CCCCNC(=O)[C@@H](N)CCCCNC(=O)CC[C@H](NC(=O)CCCCCCCCCCCCCCCCCCC(=O)O)C(=O)O)NC(=O)[C@H](CCC(=O)O)NC(=O)[C@H](CC(C)C)NC(=O)[C@H](Cc1ccc(O)cc1)NC(=O)[C@H](Cc1ccc(O)cc1)NC(=O)[C@H](CO)NC(=O)[C@H](Cc1ccc(O)cc1)NC(=O)[C@H](CC(=O)O)NC(=O)[C@H](CO)NC(=O)[C@@H](NC(=O)[C@H](Cc1ccccc1)NC(=O)[C@@H](NC(=O)CNC(=O)[C@H](CCC(=O)O)NC(=O)C(C)(C)NC(=O)[C@@H](N)Cc1ccc(O)cc1)[C@@H](C)O)[C@@H](C)O)C(C)C)C(=O)N[C@@H](C)C(=O)NCC(=O)NCC(=O)N1CCC[C@H]1C(=O)N[C@@H](CO)C(=O)N[C@@H](CO)C(=O)NCC(=O)N[C@@H](C)C(=O)N1CCC[C@H]1C(=O)N1CCC[C@H]1C(=O)N1CCC[C@H]1C(=O)N[C@@H](CO)C(N)=O
B2: Compound No. 22 (peptide)
peptide: Y[Aib]EGTFTSDYSILLEK([εLys-εLys-γGlu-C18 diacid])QAAREFVNWLLAGGPSSGAPPPS-OH
modifications: N-terminus assumed
SMILES: CC[C@H](C)[C@H](NC(=O)[C@H](CO)NC(=O)[C@H](Cc1ccc(O)cc1)NC(=O)[C@H](CC(=O)O)NC(=O)[C@H](CO)NC(=O)[C@@H](NC(=O)[C@H](Cc1ccccc1)NC(=O)[C@@H](NC(=O)CNC(=O)[C@H](CCC(=O)O)NC(=O)C(C)(C)NC(=O)[C@@H](N)Cc1ccc(O)cc1)[C@@H](C)O)[C@@H](C)O)C(=O)N[C@@H](CC(C)C)C(=O)N[C@@H](CC(C)C)C(=O)N[C@@H](CCC(=O)O)C(=O)N[C@@H](CCCCNC(=O)[C@@H](N)CCCCNC(=O)[C@@H](N)CCCCNC(=O)CC[C@H](NC(=O)CCCCCCCCCCCCCCCCC(=O)O)C(=O)O)C(=O)N[C@@H](CCC(N)=O)C(=O)N[C@@H](C)C(=O)N[C@@H](C)C(=O)N[C@@H](CCCNC(=N)N)C(=O)N[C@@H](CCC(=O)O)C(=O)N[C@@H](Cc1ccccc1)C(=O)N[C@H](C(=O)N[C@@H](CC(N)=O)C(=O)N[C@@H](Cc1c[nH]c2ccccc12)C(=O)N[C@@H](CC(C)C)C(=O)N[C@@H](CC(C)C)C(=O)N[C@@H](C)C(=O)NCC(=O)NCC(=O)N1CCC[C@H]1C(=O)N[C@@H](CO)C(=O)N[C@@H](CO)C(=O)NCC(=O)N[C@@H](C)C(=O)N1CCC[C@H]1C(=O)N1CCC[C@H]1C(=O)N1CCC[C@H]1C(=O)N[C@@H](CO)C(=O)O)C(C)C
B3: Compound No. 23 (peptide)
peptide: Y[Aib]EGTFTSDYSILLEK([εLys-εLys-γGlu-C18 diacid])QAAREFIQWLLAGGPSSGAPPPS-OH
modifications: N-terminus assumed
SMILES: CC[C@H](C)[C@H](NC(=O)[C@H](Cc1ccccc1)NC(=O)[C@H](CCC(=O)O)NC(=O)[C@H](CCCNC(=N)N)NC(=O)[C@H](C)NC(=O)[C@H](C)NC(=O)[C@H](CCC(N)=O)NC(=O)[C@H](CCCCNC(=O)[C@@H](N)CCCCNC(=O)[C@@H](N)CCCCNC(=O)CC[C@H](NC(=O)CCCCCCCCCCCCCCCCC(=O)O)C(=O)O)NC(=O)[C@H](CCC(=O)O)NC(=O)[C@H](CC(C)C)NC(=O)[C@H](CC(C)C)NC(=O)[C@@H](NC(=O)[C@H](CO)NC(=O)[C@H](Cc1ccc(O)cc1)NC(=O)[C@H](CC(=O)O)NC(=O)[C@H](CO)NC(=O)[C@@H](NC(=O)[C@H](Cc1ccccc1)NC(=O)[C@@H](NC(=O)CNC(=O)[C@H](CCC(=O)O)NC(=O)C(C)(C)NC(=O)[C@@H](N)Cc1ccc(O)cc1)[C@@H](C)O)[C@@H](C)O)[C@@H](C)CC)C(=O)N[C@@H](CCC(N)=O)C(=O)N[C@@H](Cc1c[nH]c2ccccc12)C(=O)N[C@@H](CC(C)C)C(=O)N[C@@H](CC(C)C)C(=O)N[C@@H](C)C(=O)NCC(=O)NCC(=O)N1CCC[C@H]1C(=O)N[C@@H](CO)C(=O)N[C@@H](CO)C(=O)NCC(=O)N[C@@H](C)C(=O)N1CCC[C@H]1C(=O)N1CCC[C@H]1C(=O)N1CCC[C@H]1C(=O)N[C@@H](CO)C(=O)O
B4: Compound No. 9 (peptide)
peptide: Y[Aib]EGTFTSDYSIYLEK([εLys-εLys-γGlu-C18 diacid])QAAREFIEWLLAGGPSSGAPPPS-OH
modifications: N-terminus assumed
SMILES: CC[C@H](C)[C@H](NC(=O)[C@H](Cc1ccccc1)NC(=O)[C@H](CCC(=O)O)NC(=O)[C@H](CCCNC(=N)N)NC(=O)[C@H](C)NC(=O)[C@H](C)NC(=O)[C@H](CCC(N)=O)NC(=O)[C@H](CCCCNC(=O)[C@@H](N)CCCCNC(=O)[C@@H](N)CCCCNC(=O)CC[C@H](NC(=O)CCCCCCCCCCCCCCCCC(=O)O)C(=O)O)NC(=O)[C@H](CCC(=O)O)NC(=O)[C@H](CC(C)C)NC(=O)[C@H](Cc1ccc(O)cc1)NC(=O)[C@@H](NC(=O)[C@H](CO)NC(=O)[C@H](Cc1ccc(O)cc1)NC(=O)[C@H](CC(=O)O)NC(=O)[C@H](CO)NC(=O)[C@@H](NC(=O)[C@H](Cc1ccccc1)NC(=O)[C@@H](NC(=O)CNC(=O)[C@H](CCC(=O)O)NC(=O)C(C)(C)NC(=O)[C@@H](N)Cc1ccc(O)cc1)[C@@H](C)O)[C@@H](C)O)[C@@H](C)CC)C(=O)N[C@@H](CCC(=O)O)C(=O)N[C@@H](Cc1c[nH]c2ccccc12)C(=O)N[C@@H](CC(C)C)C(=O)N[C@@H](CC(C)C)C(=O)N[C@@H](C)C(=O)NCC(=O)NCC(=O)N1CCC[C@H]1C(=O)N[C@@H](CO)C(=O)N[C@@H](CO)C(=O)NCC(=O)N[C@@H](C)C(=O)N1CCC[C@H]1C(=O)N1CCC[C@H]1C(=O)N1CCC[C@H]1C(=O)N[C@@H](CO)C(=O)O

Each binder was assayed against T1, human GIP receptor (human, UniProt P48546 22-466) (assay: cell-based or functional assay).
T1 sequence (looked up): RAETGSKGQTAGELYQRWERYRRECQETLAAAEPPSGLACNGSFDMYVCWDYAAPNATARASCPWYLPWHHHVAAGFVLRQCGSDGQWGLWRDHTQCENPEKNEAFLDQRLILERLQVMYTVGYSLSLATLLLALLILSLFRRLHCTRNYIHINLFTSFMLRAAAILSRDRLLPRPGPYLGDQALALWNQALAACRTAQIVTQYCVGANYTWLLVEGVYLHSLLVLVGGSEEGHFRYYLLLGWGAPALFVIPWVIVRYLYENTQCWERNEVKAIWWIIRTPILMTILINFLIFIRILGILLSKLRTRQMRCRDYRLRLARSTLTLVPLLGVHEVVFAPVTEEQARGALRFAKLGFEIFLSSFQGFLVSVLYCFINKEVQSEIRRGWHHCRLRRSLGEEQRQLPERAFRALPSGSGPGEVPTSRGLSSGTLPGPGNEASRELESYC
B1 was tested, and the “hGIPR, CRE Luc 0% HSA EC50 (pM)” value was 3.8 pM and the “hGIPR, CRE Luc 1% HSA EC50 (pM)” value was 275 pM.
For B2, the “hGIPR, CRE Luc 0% HSA EC50 (pM)” value was 6.2 pM and the “hGIPR, CRE Luc 1% HSA EC50 (pM)” value was 169 pM.
B3 was tested, and the “hGIPR, CRE Luc 0% HSA EC50 (pM)” value was 6.7 pM and the “hGIPR, CRE Luc 1% HSA EC50 (pM)” value was 134 pM.

Each binder was assayed against human GLP-1 receptor (human, UniProt P43220 24-463) (assay: cell-based or functional assay).
With B4 the “hGLP-1R, CRE Luc 0% HSA EC50 (pM)” value was 3.8 pM and the “hGLP-1R, CRE Luc 1% HSA EC50 (pM)” value was 279 pM.
With B1 the “hGLP-1R, CRE Luc 0% HSA EC50 (pM)” value was 6 pM and the “hGLP-1R, CRE Luc 1% HSA EC50 (pM)” value was 900 pM.
With B2 the “hGLP-1R, CRE Luc 0% HSA EC50 (pM)” value was 2.8 pM and the “hGLP-1R, CRE Luc 1% HSA EC50 (pM)” value was 170 pM.
With B3 the “hGLP-1R, CRE Luc 0% HSA EC50 (pM)” value was 4.1 pM and the “hGLP-1R, CRE Luc 1% HSA EC50 (pM)” value was 118 pM.
